Results published in patent publication US20230272089A1 (SYNTHEKINE, published 2023).

Molecular target: T1, hIL2Rg ECD antigen (human, UniProt P31785 23-262)
T1 construct: Antigen of biopanning and PE-ELISA; also called extracellular domain of human IL2Rg; CD132 ECD
T1 sequence: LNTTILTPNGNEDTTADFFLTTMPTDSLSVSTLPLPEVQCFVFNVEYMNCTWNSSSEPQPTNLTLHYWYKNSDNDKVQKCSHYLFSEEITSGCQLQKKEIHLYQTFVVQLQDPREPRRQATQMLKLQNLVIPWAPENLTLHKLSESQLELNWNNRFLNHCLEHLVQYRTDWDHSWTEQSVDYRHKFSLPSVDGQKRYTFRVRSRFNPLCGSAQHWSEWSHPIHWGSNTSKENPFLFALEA
Test: periplasmic extract ELISA (PE-ELISA) of phage clones after biopanning

B1: hIL2Rg_VHH-15 (VHH)
VHH: QVQLQESGGGLVQPGGSLRLSCAASGFTFSSAHMSWVRQAPGKGREWIASIYSGGGTFYADSVKGRFTISRDNAKNTLYLQLNSLKAEDTAMYYCATNRLHYYSDDDSLRGQGTQVTVSS
notes: Periplasmic extract of a phage clone, as in the PE-ELISA; not shown: HA/His tag of the pMECS phagemid
- binding result: binds
